Data from patent US20090028859A1 (published 2009).

Columns and labels:
Flt-1-Fc fusion protein [1] = target: T1, Flt-1-Fc fusion protein (human, UniProt P17948-2 27-687, limits assumed); assay: competition ELISA: inhibition of Flt-1-Fc binding to immobilized VEGF165, reference scFv 6.12
T1 construct: Bought from R&D Systems; also called VEGFR-1; not shown: Fc part

Flt-1-Fc fusion protein [2] = target: T1, Flt-1-Fc fusion protein; assay: BIAcore SPR, Flt-1-Fc immobilized, antibody injected
Method: The binding kinetics of the diabody and its parent scFv to KDR and Flt-1 were measured using a BIAcore biosensor (Pharmacia Biosensor). KDR-AP or Flt-1-Fc fusion protein was immobilized onto a sensor chip and soluble antibodies were injected at concentrations ranging from 1.5 nM to 100 nM. Sensorgrams were obtained at each concentration and were analyzed with, BIA Evaluation 2.0, a program to determine the rate constants kon and koff. The affinity constant, Kd, was calculated from the ratio of rate constants koff/kon.

[3] = target: T2, KDR-alkaline phosphatase (AP) soluble fusion protein (human, UniProt P35968 20-764); assay: direct binding ELISA on immobilized KDR, detection with anti-E tag antibody-HRP, A450
T2 construct: also called KDR-AP; soluble KDR; not shown: alkaline phosphatase (AP) fusion partner
T2 sequence (P35968 20-764): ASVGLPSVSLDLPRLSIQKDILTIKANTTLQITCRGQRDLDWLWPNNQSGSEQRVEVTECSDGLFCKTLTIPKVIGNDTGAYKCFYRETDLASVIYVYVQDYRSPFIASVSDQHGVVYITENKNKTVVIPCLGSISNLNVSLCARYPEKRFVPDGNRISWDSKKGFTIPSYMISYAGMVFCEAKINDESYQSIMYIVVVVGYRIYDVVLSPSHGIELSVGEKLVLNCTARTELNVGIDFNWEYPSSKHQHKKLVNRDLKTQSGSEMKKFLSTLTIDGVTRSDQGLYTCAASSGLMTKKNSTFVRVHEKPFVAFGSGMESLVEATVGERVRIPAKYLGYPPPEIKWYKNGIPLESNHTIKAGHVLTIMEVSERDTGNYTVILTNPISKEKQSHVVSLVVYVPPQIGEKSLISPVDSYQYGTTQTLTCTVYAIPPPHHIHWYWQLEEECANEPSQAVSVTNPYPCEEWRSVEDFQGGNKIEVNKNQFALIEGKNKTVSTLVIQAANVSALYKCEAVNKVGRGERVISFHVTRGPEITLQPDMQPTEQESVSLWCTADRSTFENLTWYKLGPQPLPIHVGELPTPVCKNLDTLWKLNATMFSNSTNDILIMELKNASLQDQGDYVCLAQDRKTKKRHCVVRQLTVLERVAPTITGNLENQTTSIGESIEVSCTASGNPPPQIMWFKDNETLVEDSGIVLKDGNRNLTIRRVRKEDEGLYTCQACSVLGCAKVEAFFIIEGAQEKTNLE
Method: (§1) Two assays were carried out to determine the dual antigen binding capability of the diabody. First, a cross-linking assay was used to investigate whether the diabody is capable of binding both of its target antigens simultaneously. Briefly, the diabody or its parent scFv were first incubated in a 96-well Maxi-sorp microtiter plate (Nunc, Roskilde, Denmark) precoated with Flt-1-Fc fusion protein (1 μg/ml×[…] per well overnight at 4° C.) at room temperature (RT) for 1 h. The plate was washed three times with PBS containing 0.1% Tween (PBST), followed by incubation with KDR-AP fusion protein at RT for additional 1 h. The plate-bound KDR-AP was then quantified by the addition of AP substrate, p-nitrophenyl phosphate (Sigma, St. Louis, Mo.), followed by reading of the absorbance at 405 nm (Lu, D. et al., 1999). In the second, direct binding assay, various amounts of diabody or scFv were added to KDR or Flt-1 coated 96-well plates and incubated at RT for 1 h, after which the plates were washed 3 times with PBST. The plates were then incubated at RT for 1 h with 100 μl of an anti-E tag antibody-HRP conjugate (Amersham Pharmacia Biotech). The plates were washed, peroxidase substrate added, and the absorbance at 450 nm read following the procedure described previously (Lu, D. et al., 1999).

Flt-1-Fc fusion protein [4] = target: T1, Flt-1-Fc fusion protein; assay: direct binding ELISA on immobilized Flt-1, detection with anti-E tag antibody-HRP, A450
Method: as §1

Flt-1-Fc fusion protein [5] = target: T1, Flt-1-Fc fusion protein; assay: blocking ELISA: antibody mixed with a fixed amount of Flt-1-Fc, transferred to immobilized PlGF, plate-bound Flt-1-Fc detected with anti-human Fc-HRP, A450
Method: The assays followed previously described protocols (Zhu, Z. et al., 1998; Lu, D. et al., 1999). Briefly, various amounts of the diabody or scFv were mixed with a fixed amount of KDR-AP (100 ng) or Flt-1-Fc fusion protein (50 ng) and incubated at RT for 1 h. The mixture were then transferred to 96-well microtiter plates precoated with VEGF₁₆₅ (200 ng/well) or PlGF (200 ng/well) and incubated at RT for an additional 2 h, after which the plates were washed 5 times with PBS. For the KDR-AP assay, the substrate for AP was added, followed by reading of the absorbance at 405 nm to quantify the plate-bound KDR-AP. For the Flt-1-Fc assay, the plate was incubated with a mouse anti-human Fc-HRP conjugate to quantify the plate-bound Flt-1-Fc.

T1 sequence (P17948 other isoform, or with tags, fused parts or gaps limits assumed): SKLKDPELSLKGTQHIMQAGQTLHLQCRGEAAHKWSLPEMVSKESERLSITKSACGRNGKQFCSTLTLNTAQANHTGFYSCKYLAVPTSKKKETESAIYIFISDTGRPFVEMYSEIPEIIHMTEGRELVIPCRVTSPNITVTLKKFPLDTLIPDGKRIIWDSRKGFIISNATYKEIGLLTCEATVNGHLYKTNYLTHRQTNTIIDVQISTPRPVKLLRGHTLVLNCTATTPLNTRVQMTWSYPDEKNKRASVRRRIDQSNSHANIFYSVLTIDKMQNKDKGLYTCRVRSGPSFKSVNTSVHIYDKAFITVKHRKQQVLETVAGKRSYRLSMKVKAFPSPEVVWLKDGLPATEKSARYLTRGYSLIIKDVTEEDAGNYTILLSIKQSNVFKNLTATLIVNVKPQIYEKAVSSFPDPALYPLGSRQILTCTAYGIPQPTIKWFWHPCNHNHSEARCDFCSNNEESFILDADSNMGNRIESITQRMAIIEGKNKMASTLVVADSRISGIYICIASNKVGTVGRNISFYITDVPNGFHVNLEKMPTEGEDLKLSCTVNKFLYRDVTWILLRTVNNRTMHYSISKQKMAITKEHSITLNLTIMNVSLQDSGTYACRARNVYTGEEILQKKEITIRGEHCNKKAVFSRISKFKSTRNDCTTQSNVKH

B1: anti-KDR x anti-Flt-1 bifunctional diabody (bispecific antibody, part only; not given: anti-KDR domains, E tag, not shown: small tags and cut ends)
chain, part 1: GGGGSQVKLQQSGAELVKPGASVKLSCTASGFNIKDTYIHWVKQSPEQGLEWIGWIDPPNDNTKYDPKFQGKATITADTSSNTAYMQLRSLTSEDTAVYYCALPPFYFDYWGHGTTVTVSS
chain, part 2: DIELTQSPKFMSTSVGDRVSVTCKASQNVDTNVAWYQQKPGQSPKALIYSASYRYSGVPDRFTGSGSGTDFTLTISNVQSEDLAEYFCQQYNSFPYTFGGGTKLEIKRAGGGGS
fold less potent than the parent scFv 6.12 (Flt-1-Fc fusion protein [1]): 10 fold

B2: scFv 6.12 (scFv)
scFv: QVKLQQSGAELVKPGASVKLSCTASGFNIKDTYIHWVKQSPEQGLEWIGWIDPPNDNTKYDPKFQGKATITADTSSNTAYMQLRSLTSEDTAVYYCALPPFYFDYWGHGTTVTVSSGGGGSGGGGSGGGGSDIELTQSPKFMSTSVGDRVSVTCKASQNVDTNVAWYQQKPGQSPKALIYSASYRYSGVPDRFTGSGSGTDFTLTISNVQSEDLAEYFCQQYNSFPYTFGGGTKLEIKRA
notes: expressed soluble from pCANTAB 5E and detected with anti-E tag antibody; not shown: E tag from vector pCANTAB 5E
Kd (Flt-1-Fc fusion protein [2]): 9.8 nM
koff (Flt-1-Fc fusion protein [2]): 0.00236 s⁻¹
kon (Flt-1-Fc fusion protein [2]): 241000 M⁻¹ s⁻¹
binding result [3]: no binding (tested: about 12 nM)
EC50 (read off the curve) (Flt-1-Fc fusion protein [4]): ~0.6 nM
IC50 (read off the curve) (Flt-1-Fc fusion protein [5]): ~1 nM

B3: scFv p1C11 (scFv)
scFv: QVKLQQSGAELVGSGASVKLSCTTSGFNIKDFYMHWVKQRPEQGLEWIGWIDPENGDSDYAPKFQGKATMTADSSSNTAYLQLSSLTSEDTAVYYCNAYYGDYEGYWGQGTTVTVSSGGGGSGGGGSGGGGSDIELTQSPAIMSASPGEKVTITCSASSSVSYMHWFQQKPGTSPKLWIYSTSNLASGVPARFSGSGSGTSYSLTISRMEAEDAATYYCQQRSSYPFTFGSGTKLEIK
notes: Mouse scFv from a phage library, VH and VL joined by (GGGGS)3, made soluble from pCANTAB 5E with a C-terminal E tag (detected with anti-E tag antibody); It is not known whether the entry includes the tag; also called anti-KDR scFv
EC50 (read off the curve) [3]: ~0.3 nM
